We go through eight molecules from article PMC10398996.

Where two headings read alike, the source gives them in different places. Bounds are passed on as bounds.

In data set [1] the target is endogenous mouse APP (mouse (endogenous in C57BL/6 cortex and mouse cells)). Nature of the data set: native gel or EMSA; Blue Native PAGE of membranes of homogenised mouse cortices (E14 to 12 months; WT, non-transgenic and J20 mice; KO cortices as antibody controls), n-dodecyl-β-D-maltoside; Western blot with Y188, 57 or D2-II. For orientation: A gel shift assay detects complexes by their altered migration in electrophoresis.

Data set [2] has the same target. Described as above. This is another data set of the same source.
Data set [3] addresses APP F1 (APP695 with a C-terminal FKBP tag and HA tag). Kind of data set: native gel or EMSA; Blue Native PAGE (4–15% Tris–HCl gel, overnight, 4 °C) of membranes of transiently transfected N2a cells solubilised with n-dodecyl-β-D-maltoside; no dimerizer (untreated or ethanol vehicle); Western blot; dimer as percent of total signal.
The target of data set [4] is endogenous human APP (human (endogenous in middle frontal gyrus)). Kind of data set: native gel or EMSA; Blue Native PAGE, semi-denaturing conditions, of human middle frontal gyrus (controls n = 5, AD n = 6); Western blot with Y188.
The target of data set [5] is APLP1 F1 (APLP1 with a C-terminal FKBP tag and HA tag). Kind of data set: native gel or EMSA; Blue Native PAGE (4–15% Tris–HCl gel, overnight, 4 °C) of membranes of transiently transfected N2a cells solubilised with n-dodecyl-β-D-maltoside; no dimerizer (untreated or ethanol vehicle); Western blot; dimer as percent of total signal.
Assay in data set [6]: as above
The target in data set [7] is APLP2 F1 (APLP2-763 with a C-terminal FKBP tag and HA tag). The description is as above.
Data set [8] in a line: native gel or EMSA; as a1, but the cells were treated with 100 nM of the rapamycin analogue AP20187 (dimerizer) overnight, added 4 h post-transfection.
The target in data set [9] is endogenous mouse APLP1 (mouse (endogenous in C57BL/6 cortex and mouse cells)). Kind of data set: native gel or EMSA; Blue Native PAGE of membranes of homogenised mouse cortices (E14 to 12 months; WT, non-transgenic and J20 mice; KO cortices as antibody controls), n-dodecyl-β-D-maltoside; Western blot with Y188, 57 or D2-II.
For data set [10], the target named is hAPP with the FAD mutations Swedish (K670N/M671L) and Indiana (V717F), transgenic in J20 mice (human) (UniProt P05067). The data set is described as above.
Data set [11] concerns the target T1, endogenous mouse APLP2 (mouse (endogenous in C57BL/6 cortex and mouse cells)), Q06335.
T1 chain: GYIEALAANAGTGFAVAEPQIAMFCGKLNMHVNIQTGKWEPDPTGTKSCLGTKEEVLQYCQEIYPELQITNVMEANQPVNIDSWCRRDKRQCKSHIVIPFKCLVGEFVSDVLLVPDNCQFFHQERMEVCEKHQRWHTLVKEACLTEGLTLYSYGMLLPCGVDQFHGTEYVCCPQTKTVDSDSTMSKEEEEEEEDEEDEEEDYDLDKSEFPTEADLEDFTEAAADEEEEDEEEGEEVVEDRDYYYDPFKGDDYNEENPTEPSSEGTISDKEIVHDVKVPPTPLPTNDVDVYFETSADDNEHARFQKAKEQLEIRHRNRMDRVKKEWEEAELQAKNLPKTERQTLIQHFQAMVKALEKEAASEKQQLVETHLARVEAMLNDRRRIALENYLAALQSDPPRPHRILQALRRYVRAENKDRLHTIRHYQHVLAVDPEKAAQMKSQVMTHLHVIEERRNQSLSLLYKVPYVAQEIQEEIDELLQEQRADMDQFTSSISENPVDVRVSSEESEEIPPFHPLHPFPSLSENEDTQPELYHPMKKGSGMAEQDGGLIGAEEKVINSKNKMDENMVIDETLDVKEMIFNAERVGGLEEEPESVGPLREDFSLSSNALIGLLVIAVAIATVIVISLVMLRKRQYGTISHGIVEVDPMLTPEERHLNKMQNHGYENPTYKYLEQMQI
The data set is described as above. The following applies: remark: other sources report otherwise.

As for endogenous mouse APP (natural protein), in data set [1], the percent dimer is 48.9%, the percent dimer (1 to 12 months old mice) was 49%, the percent dimer (4 months) came to 61.3% and the percent dimer (12 months) was determined as 54.8%. Also, the percent dimer in data set [2] turned out to be 45%.
“APP F1 (APP695 with a C-terminal FKBP tag and HA tag)” showed a percent dimer in [3] of 22.2%.
Take endogenous human APP (natural protein): the percent dimer (non-demented controls) in data set [4] was found to be 21.8%.
The molecule “APLP1 F1 (APLP1 with a C-terminal FKBP tag and HA tag)” had a percent dimer in [5] of 31.8%.
Consider “APLP2 F1 (APLP2-763 with a C-terminal FKBP tag and HA tag)”, for which the “percent in the HMW complex” value in data set [6] is recorded as < 20%, in the high molecular weight (HMW) complex. The percent dimer in data set [7] was 16.2%. Further, the “percent in the HMW complex with AP20187” value in data set [8] is listed as > 60% of APLP2 in the HMW complex.
In the case of “endogenous mouse APLP1 (natural protein)”, the percent dimer in [9] came out at 45.6%.
Take “hAPP with the FAD mutations Swedish (K670N/M671L) and Indiana (V717F), transgenic in J20 mice (from UniProt P05067 18-770) (natural protein)”: in [10], the percent dimer (4 months) turned out to be 58.1% and the percent dimer (12 months) was 58%.

B1: endogenous mouse APLP2, Q06335 32-707 (natural protein)
chain: GYIEALAANAGTGFAVAEPQIAMFCGKLNMHVNIQTGKWEPDPTGTKSCLGTKEEVLQYCQEIYPELQITNVMEANQPVNIDSWCRRDKRQCKSHIVIPFKCLVGEFVSDVLLVPDNCQFFHQERMEVCEKHQRWHTLVKEACLTEGLTLYSYGMLLPCGVDQFHGTEYVCCPQTKTVDSDSTMSKEEEEEEEDEEDEEEDYDLDKSEFPTEADLEDFTEAAADEEEEDEEEGEEVVEDRDYYYDPFKGDDYNEENPTEPSSEGTISDKEIVHDVKVPPTPLPTNDVDVYFETSADDNEHARFQKAKEQLEIRHRNRMDRVKKEWEEAELQAKNLPKTERQTLIQHFQAMVKALEKEAASEKQQLVETHLARVEAMLNDRRRIALENYLAALQSDPPRPHRILQALRRYVRAENKDRLHTIRHYQHVLAVDPEKAAQMKSQVMTHLHVIEERRNQSLSLLYKVPYVAQEIQEEIDELLQEQRADMDQFTSSISENPVDVRVSSEESEEIPPFHPLHPFPSLSENEDTQPELYHPMKKGSGMAEQDGGLIGAEEKVINSKNKMDENMVIDETLDVKEMIFNAERVGGLEEEPESVGPLREDFSLSSNALIGLLVIAVAIATVIVISLVMLRKRQYGTISHGIVEVDPMLTPEERHLNKMQNHGYENPTYKYLEQMQI
Molecule B1 came in with a percent dimer in data set [11] of 26.1%.
